In PMC10978960, “Structure, function and substrate preferences of archaeal S-adenosyl-L-homocysteine hydrolases” (Communications Biology, 2024):

B1: S-adenosyl-L-homocysteine hydrolase from Methanococcus maripaludis (enzyme)
chain: MSNVKDMSLAPSGHLKMEWAKRHMPVLCRIAEEFKNDKPFEGLTIGMALHLEAKTAILAETLLEGGAKIVITGCNPLSTQDDVAAACVEKGMEVYAWRGETNEEYYENLNKVLDSNPDIIIDDGADLIFLIHTERTELIGKIMGGCEETTTGIIRLKSMAEEGALKFPVVNVNDAYTKHLFDNRYGTGQSAMDGIIRTTNLLIAGKNVVVGGYGWCGRGVASRAAGHGANVIITEVNPIRALEAKMDGFTVLKMEEAAKIGDIFVTTTGCKDILRMEHFLLMKDGAVLSNAGHFDNEINKNDLKELSKSVKEARFNIEEYDLGNKKIYLLGEGRLVNLACADGHPCEVMDMSFANQALSAKFIKENKGKLENEVYEIPYEQDFKIALLKLHSMGADIDELSPEQRKYLSDWKEGT
notes: S-adenosyl-L-homocysteine hydrolase (SAHH) of Methanococcus maripaludis; gene bought as a synthetic DNA string and cloned into pET28a(+); The tag counts as kept because protein concentration was determined with the molecular weight including the His6-tag and no cleavage step is described; also called MmaSAHH; SAHH; source: E. coli BL21-Gold(DE3), purified (nickel-NTA, PD-10 desalting)
B2: S-adenosyl-L-homocysteine hydrolase from Mus musculus (enzyme)
chain: MSDKLPYKVADIGLAAWGRKALDIAENEMPGLMRMREMYSASKPLKGARIAGCLHMTVETAVLIETLVALGAEVRWSSCNIFSTQDHAAAAIAKAGIPVFAWKGETDEEYLWCIEQTLHFKDGPLNMILDDGGDLTNLIHTKYPQLLSGIRGISEETTTGVHNLYKMMSNGILKVPAINVNDSVTKSKFDNLYGCRESLIDGIKRATDVMIAGKVAVVAGYGDVGKGCAQALRGFGARVIITEIDPINALQAAMEGYEVTTMDEACKEGNIFVTTTGCVDIILGRHFEQMKDDAIVCNIGHFDVEIDVKWLNENAVEKVNIKPQVDRYWLKNGRRIILLAEGRLVNLGCAMGHPSFVMSNSFTNQVMAQIELWTHPDKYPVGVHFLPKKLDEAVAEAHLGKLNVKLTKLTEKQAQYLGMPINGPFKPDHYRY
notes: S-adenosyl-L-homocysteine hydrolase (SAHH, adenosylhomocysteinase) of Mus musculus; gene bought as a synthetic DNA string and cloned into pET28a(+); The tag counts as kept because protein concentration was determined with the molecular weight including the His6-tag and no cleavage step is described; also called MmSAHH; SAHH; source: E. coli BL21-Gold(DE3), purified (nickel-NTA, PD-10 desalting)
B3: S-adenosyl-L-homocysteine hydrolase from Pyrococcus furiosus (enzyme)
chain: MDCGKDYCVKDLSLAEEGWKKIDWVSRFMPVLQYIKREFEEKKPFKGVRIAATLHLEMKTAFLLLTLKAGGAEVSAAASNPLSTQDDVVAALAKAGVKVYAIRGESREQYYEFMHKALDIRPNIIIDDGADMISLVHKERQEMLDEIWGGSEETTTGVIRLRAMEKAGILKFPVIAVNDSYMKYLFDNRYGTGQSTWDGIMRATNLLIAGKNVVVVGYGWCGRGIAMRARGLGATVIVVEVDPIKALEARMDGFLVMDMKEAAKIGDIFVTATGNIKCIRREHFELMKDGAIMANAGHFDVEIWKPDLEKLAVEINNPRPNVTEYKLKDGRRLYLLADGRLVNLVAADGHPAEIMDMSFALQAKAAEYIKDNHERLEPKVYILPREIDEMVARIKLESMGIKIEELTEEQKKYLESWEHGT
notes: S-adenosyl-L-homocysteine hydrolase (SAHH) of Pyrococcus furiosus; gene bought as a synthetic DNA string and cloned into pET28a(+); The tag counts as kept because protein concentration was determined with the molecular weight including the His6-tag and no cleavage step is described; One sample was heated at 95 °C for 15 min before crystallisation (8QNO); also called PfuSAHH; SAHH; source: E. coli …
B4: S-adenosyl-L-homocysteine hydrolase from Sulfolobus acidocaldarius (enzyme)
chain: MDYRVKDLSLAEQGRKQIEWAELHMPALMEIRKRFNAEKPLDGIRIGAVLHVTKETAVLVETLKAGGAEIALAGSNPLSTQDDVAAGLAKNGIHVYAWRGETEKDYYDNIREILKYEPHVIMDDGGDLHAYVHENNLTSKIVGGTEETTTGVIRLKAMEEEKVLKYPVIAVNNAFTKYLFDNRIGTGQSTIDGILRATNILIAGKVAVVIGYGWVGRGIASRFKGMGARVIVVESSPFRALEALMDGFDVMTMNRASEIGDIFVTATGNLNVVSRDHILRMKDGAVLANSGHFNVEIDVKGLKEISVETREVRQNLEEYKLRNGKRIYLLADGRLVNLVAAEGHPSEVMDLSFCNQALSVEHLIKNKGKLENKVYNVPIEIDEQVARLKLKALGIEIEELTIEQKEYIKQWKYGT
notes: S-adenosyl-L-homocysteine hydrolase (SAHH) of Sulfolobus acidocaldarius; gene bought as a synthetic DNA string and cloned into pET28a(+); The tag counts as kept because protein concentration was determined with the molecular weight including the His6-tag and no cleavage step is described; also called SacSAHH; SAHH; source: E. coli BL21-Gold(DE3), purified (nickel-NTA, PD-10 desalting)

Molecular target: the molecule itself
Experiment: crystal structure; co-crystals of the purified enzyme with co-purified NAD+ and a nucleoside ligand (inosine, SIH or adenosine), sitting drop vapour diffusion at room temperature or 22 °C; tetramers built in the respective space groups and analysed with PDBePISA

| Protein | stoichiometry N |
| --- | --- |
| B1 | 4 |
| B2 | 4 |
| B3 | 4 |
| B4 | 4 |
